The target in this data set is T1, Androgen receptor (AR) (Homo sapiens?) (UniProt P10275).
T1 sequence: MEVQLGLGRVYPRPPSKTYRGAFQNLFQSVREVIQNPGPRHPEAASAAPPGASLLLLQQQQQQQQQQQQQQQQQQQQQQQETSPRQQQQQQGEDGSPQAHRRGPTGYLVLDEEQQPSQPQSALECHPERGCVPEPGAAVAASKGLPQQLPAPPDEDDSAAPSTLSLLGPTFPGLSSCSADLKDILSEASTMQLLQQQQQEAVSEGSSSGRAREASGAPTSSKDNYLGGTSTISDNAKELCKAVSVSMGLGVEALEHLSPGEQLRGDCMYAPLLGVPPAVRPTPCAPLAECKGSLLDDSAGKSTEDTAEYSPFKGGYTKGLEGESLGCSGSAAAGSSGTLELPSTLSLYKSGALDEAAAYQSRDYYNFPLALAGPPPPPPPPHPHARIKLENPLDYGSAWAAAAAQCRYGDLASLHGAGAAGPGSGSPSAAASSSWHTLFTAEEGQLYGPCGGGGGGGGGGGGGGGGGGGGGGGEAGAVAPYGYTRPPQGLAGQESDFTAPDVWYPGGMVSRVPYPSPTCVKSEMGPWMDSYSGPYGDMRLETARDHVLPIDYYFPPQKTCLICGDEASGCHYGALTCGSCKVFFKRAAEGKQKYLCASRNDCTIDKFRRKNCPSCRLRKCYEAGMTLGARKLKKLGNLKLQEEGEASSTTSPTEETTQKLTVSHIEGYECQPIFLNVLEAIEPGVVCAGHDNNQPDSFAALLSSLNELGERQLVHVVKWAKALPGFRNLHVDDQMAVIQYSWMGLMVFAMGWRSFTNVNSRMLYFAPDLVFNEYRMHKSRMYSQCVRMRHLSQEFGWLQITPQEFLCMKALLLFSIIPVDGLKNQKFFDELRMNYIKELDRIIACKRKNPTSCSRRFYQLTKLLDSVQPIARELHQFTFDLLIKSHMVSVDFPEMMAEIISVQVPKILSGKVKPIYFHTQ
As to the kind of experiment: pulldown. Conditions: RIP; not significantly above background SLNCR.

With SLNCR1 delta 568-637, the binding signal (fold enrichment) is 14.

Values taken from US20190071668.
